Measurements published in patent US20210238276A1 (INTEGRAL MOLECULAR, published 2021).

Legend:
hsGLUT4 R265A = molecular target: T1, hsGLUT4 R265A (human, UniProt P14672 1-509); experiment: flow cytometry, alanine-scan library in HEK-293T
T1 sequence: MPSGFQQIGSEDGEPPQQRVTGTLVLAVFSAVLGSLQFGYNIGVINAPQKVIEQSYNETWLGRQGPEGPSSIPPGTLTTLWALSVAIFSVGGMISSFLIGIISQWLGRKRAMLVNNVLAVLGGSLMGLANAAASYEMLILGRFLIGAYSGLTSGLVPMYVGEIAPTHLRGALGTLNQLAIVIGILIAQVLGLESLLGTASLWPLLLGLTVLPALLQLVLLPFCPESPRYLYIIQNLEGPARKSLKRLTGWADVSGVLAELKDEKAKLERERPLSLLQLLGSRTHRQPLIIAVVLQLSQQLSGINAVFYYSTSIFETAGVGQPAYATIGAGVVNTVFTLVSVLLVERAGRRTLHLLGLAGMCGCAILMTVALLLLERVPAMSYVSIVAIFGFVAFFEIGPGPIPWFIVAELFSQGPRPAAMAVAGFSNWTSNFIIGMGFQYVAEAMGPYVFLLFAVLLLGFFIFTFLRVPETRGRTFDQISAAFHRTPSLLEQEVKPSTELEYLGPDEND
In short: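 HEK-293T cells expressing individual GLUT4 alanine mutants were stained 48 h post-transfection with anti-GLUT4 scFv MAbs (2 μg/ml), then biotinylated secondary and streptavidin-PerCP, and read by high-throughput flow cytometry. Where used, cytochalasin B (10 uM final) was given for 30 min before and during primary antibody staining.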

hsGLUT4 E345Q = molecular target: T2, hsGLUT4 E345Q (human, UniProt P14672 1-509); experiment: flow cytometry, mutant in HEK-293T
T2 construct: also called inward-open lock mutant
T2 sequence: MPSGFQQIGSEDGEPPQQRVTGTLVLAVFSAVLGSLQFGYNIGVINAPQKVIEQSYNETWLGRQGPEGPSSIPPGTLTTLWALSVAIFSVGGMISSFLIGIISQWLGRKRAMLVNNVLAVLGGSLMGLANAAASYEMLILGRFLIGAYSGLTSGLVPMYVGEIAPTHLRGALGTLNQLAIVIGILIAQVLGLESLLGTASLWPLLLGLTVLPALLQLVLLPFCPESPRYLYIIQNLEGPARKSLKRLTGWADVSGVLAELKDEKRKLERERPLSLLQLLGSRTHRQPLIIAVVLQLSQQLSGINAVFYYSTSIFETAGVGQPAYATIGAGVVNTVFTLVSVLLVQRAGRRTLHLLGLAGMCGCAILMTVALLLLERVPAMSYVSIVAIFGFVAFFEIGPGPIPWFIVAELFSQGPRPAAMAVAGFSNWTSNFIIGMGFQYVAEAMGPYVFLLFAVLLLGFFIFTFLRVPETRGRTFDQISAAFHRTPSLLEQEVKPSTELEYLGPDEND

hsGLUT4 Y309I = molecular target: T3, hsGLUT4 Y309I (human, UniProt P14672 1-509); experiment: flow cytometry, mutant in HEK-293T
T3 construct: The running text prints 'Y3091'; also called Y3091 (as printed in the running text); outward-open lock mutant
T3 sequence: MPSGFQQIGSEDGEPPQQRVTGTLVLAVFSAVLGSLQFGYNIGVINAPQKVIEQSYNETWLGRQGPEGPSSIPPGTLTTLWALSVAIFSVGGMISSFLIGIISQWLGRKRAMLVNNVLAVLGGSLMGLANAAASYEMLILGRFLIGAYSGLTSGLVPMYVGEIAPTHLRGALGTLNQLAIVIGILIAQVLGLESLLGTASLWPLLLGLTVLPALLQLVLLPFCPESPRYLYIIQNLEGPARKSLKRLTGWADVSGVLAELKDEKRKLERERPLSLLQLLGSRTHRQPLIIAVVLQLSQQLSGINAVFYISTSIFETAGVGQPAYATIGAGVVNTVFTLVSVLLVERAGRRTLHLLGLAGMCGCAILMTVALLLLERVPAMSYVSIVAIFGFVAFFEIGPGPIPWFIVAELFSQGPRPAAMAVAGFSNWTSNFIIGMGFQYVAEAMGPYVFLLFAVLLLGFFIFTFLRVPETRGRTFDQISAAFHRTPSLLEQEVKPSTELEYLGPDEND

[1] = molecular target: T4, human GLUT4 (hsGLUT4), wild type (UniProt P14672 1-509); experiment: BLI; avid
T4 chain: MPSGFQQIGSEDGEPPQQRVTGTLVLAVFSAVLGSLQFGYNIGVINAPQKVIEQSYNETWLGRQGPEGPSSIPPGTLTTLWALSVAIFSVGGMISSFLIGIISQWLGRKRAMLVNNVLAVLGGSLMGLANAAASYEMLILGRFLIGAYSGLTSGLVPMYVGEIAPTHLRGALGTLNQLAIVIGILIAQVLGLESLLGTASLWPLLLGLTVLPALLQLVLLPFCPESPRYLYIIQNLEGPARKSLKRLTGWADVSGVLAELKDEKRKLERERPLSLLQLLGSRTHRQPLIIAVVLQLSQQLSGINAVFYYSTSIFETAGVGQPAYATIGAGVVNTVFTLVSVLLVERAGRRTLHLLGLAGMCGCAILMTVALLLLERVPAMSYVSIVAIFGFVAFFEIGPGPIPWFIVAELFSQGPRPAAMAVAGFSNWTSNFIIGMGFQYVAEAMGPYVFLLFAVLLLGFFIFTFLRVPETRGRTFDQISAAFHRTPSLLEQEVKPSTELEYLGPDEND

## 1F8 (antibody)
hsGLUT4 R265A
  % of binding to wild type GLUT4: 101%
hsGLUT4 E345Q
  % of binding to wild type GLUT4: 91%
hsGLUT4 Y309I
  % of binding to wild type GLUT4: 101%

B1: AB111 (Fc fusion)
scFv: ALTQPSSVSANPGETVKITCSGSGSWYGWFQQKSPGSAPVTVIYSNDKRPSDIPSRFSGSKSGSTSTLTITGVQVEDEAVYYCGNWDIFGAGTTLTVLGQSSRSSGGGGSSGGGGSAVTLDESGGGLQTPGGALSLVCKASGFTFSSHGMGWVRQAPGKGLEWVASISTGRYTFYAPAVKGRATISRDNGQSTVRLQLNNLRAEDTATYYCTKCAGLNGCGGGEIDAWGHGTEVIVSS
notes: Bivalent scFv-Fc; also called MAb AB111; not shown: Fc fragment of human IgG1, cloned in frame with the scFv
[1]
  Kd: 0.56 nM
hsGLUT4 R265A
  % of binding to wild type GLUT4: 143%
hsGLUT4 E345Q
  % of binding to wild type GLUT4: 125%
hsGLUT4 Y309I
  % of binding to wild type GLUT4: 154%

B2: AB108 (Fc fusion)
scFv: ALTQPSSVSANLGGTVKITCSGSSGSYGWYQQKAPGSAPVTLIYRNDKRPSDIPSRFSGSESGSTGTLTITGVQAEDEAVYFCGGYDSSAGYAAFGAGTTLTVLGQSSRSSGGGGSSGGGGSAVTLDESGGGLQTPGGALSLVCKASGFTFSSHGMGWVRQAPGKGLEWVGSISTGRYTFYAPAVKGRATISRDNGQSTLRLQLNNLRAEDTGTYYCTKCAGLNGCGGGEIDAWGHGTEVIVSS
notes: Bivalent scFv-Fc; also called MAb AB108; not shown: Fc fragment of human IgG1, cloned in frame with the scFv
[1]
  Kd: 1.8 nM
hsGLUT4 R265A
  % of binding to wild type GLUT4: 111%
hsGLUT4 E345Q
  % of binding to wild type GLUT4: 78%
hsGLUT4 Y309I
  % of binding to wild type GLUT4: 67%

B3: AB105 (Fc fusion)
scFv: ALTQPSSVSANPGETVEITCSGDSSYYGWYQQKSPGSAPVTVIYANTNRPSDIPSRFSGSASGSTATLTITGVQAEDEAVYYCGSADSTYAGIFGAGTTLTVLGQSSRSSGGGGSSGGGGSAVTLDESGGGLQTPGGALSLICKASGFTFSSYTMNWVRQAPGKGLEWVGVISNSGRTTNYGAAVQGRATISRDNGQSTVRLQLNNLRAEDTGTYYCAKSSASASCAWWAGRSYPCSANRIDAWGHGTEVIVSS
notes: Bivalent scFv-Fc; also called MAb AB105; not shown: Fc fragment of human IgG1, cloned in frame with the scFv
hsGLUT4 E345Q
  % of binding to wild type GLUT4: 16%

B4: AB101 (scFv)
scFv: ALTQPSSVSANPGETVKITCSGSSNSYGWYQQKSPGSAPVTVIYYNDKRPSDIPSRFSGSKSDSTHTLTITGVRAEDEAVYFCGSYDSTYVGIFGAGTTLTVLGQSSRSSGGGGSSGGGGSAVTLDESGGGLQTPGGTLSLVCKASGFTFSSNAMGWVRQAPGKGLEWVAGISSDGRYTKYGSAVKGRATISRDNGQSTVRLQLNNLRAEDTGTYFCAKAFGNNYRRIYAGQIDAWGHGTEVIVSS
notes: Chicken-derived clone used as a control; the four lead clones were tested as scFv-human IgG1 Fc; also called MAb AB101
hsGLUT4 R265A
  % of binding to wild type GLUT4: 91%
hsGLUT4 E345Q
  % of binding to wild type GLUT4: 96%
hsGLUT4 Y309I
  % of binding to wild type GLUT4: 110%
